Data set [1] has as its target Isatin hydrolase A from Labrenzia aggregata (Labrenzia aggregata IAM12614). Put plainly: crystal structure; LaIHA at 15-20 mg/mL with 1 mM MnCl2, crystallised at 22 °C; structures with benzyl benzoate (1.50 Å) and isatinate (1.79 Å); dimer in the asymmetric unit.
Substrate in the data set “purified protein”: O=C1Nc2ccccc2C1=O
Nature of the data set: purified protein. The class given is biochemical, Roseibium aggregatum. The following applies: Mn2+ dependent enzyme; one-site Michaelis-Menten fit.

Consider “Isatin hydrolase A from Labrenzia aggregata (enzyme)”, for which, in data set [1], the stoichiometry N came out at 2.

B1: LaIHA (Roseibium aggregatum IAM 12614) (protein)
chain: MSSLNQLVSGLASGAVRIVDLTHTLDPDFPVIVLPPEFGQCARFRMEEISAYDHRGPAWKWHNISMSEHTGTHFDAPSHWISGKDVPNGSVDEIPAEAFVGPVVVIDCSKGAAENDDFELTPEIIAGWESEHGRIPEDAWVLMRTDWSKRRGADYLNMRADGPHSPGPTPEAIRFLIEERNIRGFGTETVGTDAGQGAHYVPPYPAHYLLHGAGKYGLQCLANLDQLPATGAVLIAAPLKIKNGTGSPLRVLAMVTE
Turning to B1, in the data set “purified protein”, the Km is 16 µM.

For the origin of these results see PMC6117287.
